Earlier results as cited in patent US3940480A, “Process for production of stabilized powdery secretin preparation by lyophilization” (priority 1972, dated 1976).

Conditions: kept at -20°C

**Q.** With Secretin as the substance, how does the “Hormone activity of secretin kept at low temperature (in words)” value read?
**A.** The value was “gradually loses its hormone activity”.
